From patent US8785600B2, “Anti-GCC antibody molecules and related compositions and methods” (Millennium Pharmaceuticals, Inc., priority 2009, dated 2014)

B1: 8F1: Mouse anti-GCC hybridoma mAb, IgG1,k; VH SEQ ID NO:10, VL SEQ ID NO:12 (antibody, V domains shown)
VH: QVQLQQPGAELVKPGASVQMSCKASGYIFTGYWMYWVKQRPGQGLEWIGRIHPSDSNTNYNQKFKGKATLTVDKSSSTAYMQLSSLTSEDSAVYYCTHALAYWGQGTLVTVS
VL: DVVLTQTPLTLSITIGQPASISCKSSQSLLYSNGKTYLSWLLQRPGQSPKRLIYLVSQLDSGVPDRFTGSGSGTDFTLKISRVEAEDLGVYYCVQGTHLFTFGSGTKLEIK
B2: 3G1: Mouse anti-GCC hybridoma mAb, IgG1,k; VH SEQ ID NO:2, VL SEQ ID NO:4 (antibody, V domains shown)
VH: QVQLKESGPGLVAPSQSLSITCTVSGFSLSRNAISWVRQPPGKGLEWLGVIWTGGGTNYNSALKSRLSIRKENSKSQVFLKMNSLQTEDTARYFCARSGYDGFDYWGQGTLVTVSA
VL: QIVLTQSPAIMSASPGEKVTMTCSASSSVNYMHWYQQKSGTSPKRWIYDTSKLASGVPARFSGSGSGTSYSLTITSMEAEDAATYYCQQWSGNPYTFGGGTKLEIK
B3: Abx-198: Human anti-GCC SLAM mAb, IgG1,k; VH SEQ ID NO:42, VL SEQ ID NO:44 (antibody, V domains shown)
VH: EVQLLESGGGLVQPGGSLRLSCAASGFTFSSYAMSWVRQAPGKGLDWVSDISGSGGSTYYADSVKGRFTISRDNSKNTLYLQMHSLSAEDTAIYYCAKRRWQGYFDLWGRGTLVTVSS
VL: EIVLTQSPGTLSLSPGERATLSCRARQRVDSRYLAWYQQKPGQAPRLLIYGASSRATGIPDRFSGSGSGTDFTLTISRLEPEDFAVYYCQQYGSSPLTFGGGTKVEIK

System: GCC 20-mer peptides (aa 1-440)
Assay: Epitope mapping by peptide array
Format: binding, human
Details: 20-mer peptides with 15 aa overlap, GCC aa 1-440
Text: Multiple strategies were initiated to identify epitopes. Peptide array. 20-mer peptides, with 15 aa overlap were generated, covering the extracellular domain (ECD) into the transmembrane domain of GCC (aa 1-440). Peptides were synthesized and provided as arrays, immobilized on glass slides. Arrays were hybridized with each of the anti-GCC antibodies to determine if linear peptides were sufficient for binding. […] The sequence, […] (SEQ ID NO:225) is spanned by these peptides. A region of overlap among the peptides is […] (SEQ ID NO:314). […] The sequence, […] (SEQ ID NO:226), and the sequence […] (SEQ ID NO:315) overlaps the two peptides.

Q: How did the “Peptides bound in peptide array” value turn out when B1 was run?
A: Its value is “peptides 55, 56 and 57”.

Q: B2 was tested. Which “Peptides bound in peptide array” value did it give?
A: Its value is “peptides 55, 56 and 57”.

Q: B3 was tested. Which “Peptides bound in peptide array” value did it give?
A: The value was “peptides 55 and 56”.
